Reference: US20190233495A1 (Sanofi, published 2019)
Read-outs that look alike come from different tables or passages of the source. Positions of bridges follow the written chain, without caps; N, C: chain ends. Chains are numbered I, II in the order given. No end group written: not given here.

T1: RXFP1 receptor (UniProt Q9HBX9 1-757, limits assumed)
T1 sequence (looked up): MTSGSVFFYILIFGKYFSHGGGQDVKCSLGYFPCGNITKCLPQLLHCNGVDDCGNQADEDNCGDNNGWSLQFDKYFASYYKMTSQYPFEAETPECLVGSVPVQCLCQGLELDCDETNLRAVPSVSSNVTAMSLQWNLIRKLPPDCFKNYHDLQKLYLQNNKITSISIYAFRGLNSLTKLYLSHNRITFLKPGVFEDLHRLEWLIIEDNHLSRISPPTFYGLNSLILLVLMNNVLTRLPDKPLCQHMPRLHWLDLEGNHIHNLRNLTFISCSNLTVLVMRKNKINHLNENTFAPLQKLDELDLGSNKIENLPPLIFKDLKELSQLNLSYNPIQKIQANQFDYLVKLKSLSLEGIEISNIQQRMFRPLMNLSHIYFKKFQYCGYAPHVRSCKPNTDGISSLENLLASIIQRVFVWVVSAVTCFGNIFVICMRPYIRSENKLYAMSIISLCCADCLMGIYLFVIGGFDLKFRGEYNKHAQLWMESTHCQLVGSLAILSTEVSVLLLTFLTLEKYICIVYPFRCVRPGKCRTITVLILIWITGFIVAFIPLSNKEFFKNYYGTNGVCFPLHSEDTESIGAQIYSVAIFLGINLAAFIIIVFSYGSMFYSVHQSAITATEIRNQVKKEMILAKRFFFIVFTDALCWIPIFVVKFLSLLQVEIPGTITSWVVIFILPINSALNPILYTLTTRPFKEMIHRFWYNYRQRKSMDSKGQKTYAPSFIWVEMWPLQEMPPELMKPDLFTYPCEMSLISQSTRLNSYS


Experiments:
RXFP1 receptor [1] = molecular target: T1, RXFP1 receptor; assay: cell-based or functional assay
RXFP1 receptor [2] = molecular target: T1, RXFP1 receptor; assay: cell-based or functional assay; remark: listed apart in the source

Row | Binder | cAMP assay in OVCAR 5 cells EC50 (RXFP1 receptor [1]) [nM] | cAMP assay in OVCAR 5 cells Emax (RXFP1 receptor [1]) [%] | cAMP assay in OVCAR 5 cells EC50 (RXFP1 receptor [2]) [nM]
1 | Ac-VIKLSGRELVRAQIAISGMSTWSKRSL-NH2 [AcB7-33 C11.23S] | 929 | 70 | 
2 | Ac-VIKLSGRELVRAQIAISGMSTWSKKKK-NH2 [KKKK(AcB7-29 C11.23S)] | 206 | 84 | 
3 | Human Relaxin-2 (H2 Relaxin) (ligand, disulfide I:10-I:15, I:11-II:11, I:24-II:23) chain 1: H-QLYSALANKCCHVGCTKRSLARFC-OH chain 2: H-DSWMEEVIKLCGRELVRAQIAICGMSTWS |  |  | 0.1 to 0.3
